Laboratory results published in PMC5434554, “Structural similarities and functional differences clarify evolutionary relationships between tRNA healing enzymes and the myelin enzyme CNPase” (BMC Biochemistry, 2017).

B1: ScTrl1 PNK/CPDase (Saccharomyces cerevisiae S288C) (protein)
chain: RTKFLIFPISVIGCGKTTTSQTLVNLFPDSWGHIQNDDITGKDKSQLMKKSLELLSKKEIKCVIVDRNNHQFRERKQLFEWLNELKEDYLVYDTNIKVIGVSFAPYDKLSEIRDITLQRVIKRGNNHQSIKWDELGEKKVVGIMNGFLKRYQPVNLDKSPDNMFDLMIELDFGQADSSLTNAKQILNEIHKAYPILVPEIPKDDEIETAFRRSLDYKPTVRKIVGKGNNNQQKTPKLIKPTYISAKIENYDEIIELVKRCIASDAELTEKFKHLLASGKVQKELHITLGHVMSSREKEAKKLWKSYCNRYTDQITEYNNNRIENAQGSGNNQNTQVKTTDKLNFRLEKLCWDEKIIAIVVELSKDKDGCIIDENNEKIKGLCCQNKIPHITLCKLESGVKAVYSNVLCEKVESAEVDENIKVVKLDNSKEFVGSVYLNF
B2: ScTrl1 CPDase (Saccharomyces cerevisiae S288C) (protein)
chain: GQADSSLTNAKQILNEIHKAYPILVPEIPKDDEIETAFRRSLDYKPTVRKIVGKGNNNQQKTPKLIKPTYISAKIENYDEIIELVKRCIASDAELTEKFKHLLASGKVQKELHITLGHVMSSREKEAKKLWKSYCNRYTDQITEYNNNRIENAQGSGNNQNTQVKTTDKLNFRLEKLCWDEKIIAIVVELSKDKDGCIIDENNEKIKGLCCQNKIPHITLCKLESGVKAVYSNVLCEKVESAEVDENIKVVKLDNSKEFVGSVYLNF

Substrate: NC(=O)c1ccc[n+]([C@@H]2O[C@H](COP(=O)(O)OP(=O)(O)OC[C@H]3O[C@@H](n4cnc5c(N)ncnc54)[C@@H]4OP(=O)(O)O[C@@H]43)[C@@H](O)[C@H]2O)c1
Test: purified protein
Conditions: 100 mM MES pH 6.0, 3 mM MgCl2, 5 mM glucose-6-phosphate, 25 °C, CPDase site

| Protein | Km | kcat | kcat/Km |
| --- | --- | --- | --- |
| B1 | 420 ± 35 µM | 317 s⁻¹ | 750000 M⁻¹ s⁻¹ |
| B2 | 237 ± 27 µM | 275 s⁻¹ | 1.16e+06 M⁻¹ s⁻¹ |
